# Measured values reported in US4746508A, “Drug administration” (Beth Israel Hospital Assn., priority 1984, dated 1988).
# Experiments:
# [1] = HPLC k' factor value (hydrophobicity) of unconjugated steroid; assay type: physicochemical; conditions: octadecylsilane column, 75% methanol in water, apparent pH 5.0
# Protocol: Preferably the steroid used in the invention is characterized in that the unconjugated derivative of the steroid is retained on a hydrophobic column for a length of time sufficient to produce a k' factor value of at least about 4, the k' factor value being obtained by subjecting a monomeric solution of 1 mg/ml of such steroid derivative to high-performance liquid column chromatography at 3,000 psi, using a 250×4.6 mm column having octadecylsilane-coated 5 μm silica particles as the stationary phase and a mobile phase, delivered at 1.0 ml/min., consisting of 75% methanol in ater, v/v, buffered with 0.005M KH2 PO4 /H3 PO4 to give an apparent pH value, as measured using a glass electrode, of 5.0, the k' factor value being defined by [formula] where t0 is the retention time in the column of the solvent front and tr is the retention time in the column of the steroid derivative as measured by obtaining the elution profile of the steroid derivative by absorbance at 210 nm.
# The structure of the steroid molecule affects its chemical properties and thus its functioning as a drug transporting molecule. We believe that all of the steroid molecules used in the invention facilitate transport by self-associating to form reversed micelles within the membrane across which the drug is being transported; these reversed micelles, it is believed, function as pores, allowing the drug to pass through. A measure of a given steroid molecule's ability to form such reversed micelles is the hydrophobicity of the unconjugated form of the molecule, a property which can be quantified using the k' factor value, which is computed by observing the steroid's retention time in a high-performance liquid chromatography (HPLC) column under the conditions described above. As mentioned above, the k' value of the unconjugated derivative of the steroid should be at least about 4 for the steroid to be suitable in the therapeutic compositions of the invention.
# The k' and CMT of the steroids used in the compositions of the invention are influenced by whether the steroid is conjugated at C21 and, if so, by the nature of the conjugating group. Additionally, a polar group at position 16 is essential for solubility (See position E on formula 1). Because the k' factor value is influenced by the polarity of any conjugating group, unconjugated derivatives must be used in numerical comparisons involving steroids which are conjugated with different groups, or comparisons involving both conjugated and unconjugated steroids. Overall hydrophobicity and k' factor value generally decrease as the polarity of the conjugating group increases. However, such decrease is not a reflection of the hydrophobicity of the steroid nucleus. […]
# [2] = in vivo
# Protocol: Corticotropin releasing-factor (CRF, a hormone of MW 4,000) (Dr. George Chrousos, National Institute of Health, Bethesda, MD) was dissolved in 0.15 NaCl and mixed with the 2% solution of sodium tauro-24,25-dihydrofusidate. CRF was also prepared without adjuvant. Two sheep were administered 350 mg ketamine intravenously and a total of 460 μg of CRF as a liquid, by drops into each side of the nose of the sheep at time 0. The dose of CRF was approximately 10 μg/kg body weight.
# [3] = Intranasal administration of proinsulin to sheep (insulin RIA adjusted for cross-reactivity); assay type: in vivo; conditions: for Proinsulin (μU/ml above baseline): Sheep 196 Study 25, 1.5 mg into each nostril
# Protocol: Commercially available proinsulin (Eli Lilly & Co., Indianapolis, Ind.) was mixed with the sodium tauro-24,25-dihydrofusidate solution or in 0.15M NaCl, pH 7.6 to give a final concentration of 6 mg/ml of proinsulin and 1% (w/v) sodium tauro-24,25-dihydrofusidate. Sheep were administered by nasal drops 1.5 mg (250 μl) of the solution into each nostril at time 0. Sheep 25 was administered proinsulin without adjuvant as described above.
molecule,measurement,setting,value
CC(=O)OC1CC2(C)C(CC(O)C3C4(C)CCC(OC(C)=O)C(C)C4CCC32C)C1=C(CCC=C(C)C)C(=O)O (stereo not drawn) [3-acetoxyl-fusidic acid],k' factor value,[1],26.4
"CC(=O)O[C@H]1C[C@@]2(C)[C@@H](C[C@@H](O)[C@H]3[C@@]4(C)CC[C@@H](O)[C@@H](C)[C@@H]4CC[C@@]32C)/C1=C(\CCCC(C)C)C(=O)O [24,25-dihydrofusidic acid]",k' factor value,[1],27.1
CC(=O)O[C@@H]1[C@H]2[C@H](C)[C@H](O)CC[C@]2(C)[C@@H]2CC[C@H]3/C(=C(\CCC=C(C)C)C(=O)O)[C@@H](OC(C)=O)C[C@]3(C)[C@@]2(C)[C@H]1O [cephalosporin P1],k' factor value,[1],9.5
"CC(=O)O[C@H]1C[C@@]2(C)[C@@H](C[C@@H](O)[C@H]3[C@@]4(C)CC[C@@H](O)[C@@H](C)[C@@H]4CC[C@@]32C)/C1=C(\CCC=C(C)C)C(=O)O [fusidic acid, reference compound]",k' factor value,[1],20.7
"Corticotropin releasing-factor without tauro-24,25-dihydrofusidate: corticotropin releasing-factor, a hormone of MW 4,000, prepared without adjuvant",increase of CRF level,[2],increased only slightly
"Proinsulin without sodium tauro-24,25-dihydrofusidate: commercially available proinsulin (Eli Lilly) in 0.15M NaCl, pH 7.6, without adjuvant",Proinsulin (μU/ml above baseline),[3]; 0 min,0 μU/ml
same,Proinsulin (μU/ml above baseline),[3]; 10 min,2.8 μU/ml
same,Proinsulin (μU/ml above baseline),[3]; 15 min,28 μU/ml
same,Proinsulin (μU/ml above baseline),[3]; 20 min,56 μU/ml
same,Proinsulin (μU/ml above baseline),[3]; 30 min,22 μU/ml
same,Proinsulin (μU/ml above baseline),[3]; 60 min,0 μU/ml
same,Proinsulin (μU/ml above baseline),[3]; 90 min,0 μU/ml
same,Proinsulin (μU/ml above baseline),[3]; 120 min,0 μU/ml
same,Proinsulin (μU/ml above baseline),[3]; 180 min,0 μU/ml
same,Proinsulin (μU/ml above baseline),[3]; 240 min,2.8 μU/ml
same,Proinsulin (μU/ml above baseline),[3]; +5 min,0 μU/ml
same,Proinsulin (μU/ml above baseline),[3]; -15 min,0 μU/ml
same,absorption of nasally administered proinsulin,"[3]; sheep, nasal drops",absorbed at a slower rate and to a much reduced extent
